Where two headings read alike, the source gives them in different places.
B1: 25-bp dsDNA (dsDNA)
DNA 1: GCTTGTCGGGAGCGCCACCCTCTGC
DNA 2: GCAGAGGGTGGCGCTCCCGACAAGC
B2: 25-bp dsRNA (dsRNA)
RNA 1: GCUUGUCGGGAGCGCCACCCUCUGC
RNA 2: GCAGAGGGUGGCGCUCCCGACAAGC

Columns and labels:
[1] = biological target: T1, TRBP-RBD2 (second dsRBD of TRBP) (UniProt Q15633 159-227); assay: EMSA
T1 sequence: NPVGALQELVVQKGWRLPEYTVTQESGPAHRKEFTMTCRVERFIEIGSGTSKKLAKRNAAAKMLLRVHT

[2] = biological target: T1, TRBP-RBD2 (second dsRBD of TRBP); assay: EMSA; remark: listed apart in the source

Binder	binding result [1]	binding result [2]
B1	no binding	
B2		binds

Reference: article PMC4051425
